Patent US11839219B2, “BVP10 protein for controlling tetranychid mites and use thereof” (priority 2021, dated 2023)

Assays:
Tetranychus urticae = assay: Slide dipping method, miticidal activity against Tetranychus urticae; details: for Mortality (%): 24 hrs after dipping; for Probability Unit (P + 5): probit of mortality
Description: (§1) Referring to the standard method for determining pest mites, namely, the slide dipping method, recommended by Food and Agriculture Organization of the United Nations (FAO), a double-faced adhesive tape is cut into pieces 2-3 cm long and stuck to one end of a microscope slide, and paper on the adhesive tape is removed with tweezers. Female adult mites with similar sizes, bright body color, and high vitality are picked with a 0# Chinese writing brush, and are stuck to the double-faced adhesive tape (note: the feet, whiskers, and mouthparts of the mites should not be stuck) on their backs, with 4 lines stuck to each piece and 10 mites in each line. The mites are placed and left in a biochemical incubator for 4 hrs at temperature of 25° C. and a relative humidity of approximately 85%, and then are observed with binoculars. […] The agent is diluted 5-7 times with water based on a preliminary test. One end of the slide with the mites is dipped into the agent solution, shaken lightly for 5 s, and then taken out. The mites, as well as the excessive agent solution therearound, are rapidly dried with absorbent paper. The slide is placed and left in the above biochemical incubator. After 24 hrs, the results are checked with the binoculars. The bodies of the mites are lightly touched with the Chinese writing brush, and those without any motion of their feet are considered to be dead. The test is repeated three times at each concentration, and the mites dipped in fresh water are taken as a control. […] An LC50 value is calculated by using SPASS 19.0 data processing software.

Panonychus citri = assay: Slide dipping method, miticidal activity against Panonychus citri; details: for Mortality (%): 24 hrs after dipping; for Probability Unit (P + 5): probit of mortality
Description: as §1, with “recommended by the Food and” for “recommended by Food and”, “bright body color and high” for “bright body color, and high”, “biochemical incubator with the temperature of” for “biochemical incubator for 4 hrs at temperature of”, “of approximately 85% for 4 hrs, and then” for “of approximately 85%, and then”, “for 5 s and then” for “for 5 s, and then”, “by using the SPASS 19.0” for “by using SPASS 19.0”

Tetranychus cinnabarinus = assay: Slide dipping method, miticidal activity against Tetranychus cinnabarinus; details: for Mortality (%): 24 hrs after dipping; for Probability Unit (P + 5): probit of mortality
Description: as §1, with “recommended by the Food and” for “recommended by Food and”, “bright body color and high” for “bright body color, and high”, “biochemical incubator with the temperature of” for “biochemical incubator for 4 hrs at temperature of”, “of approximately 85% for 4 hrs, and then” for “of approximately 85%, and then”, “for 5 s and then” for “for 5 s, and then”, “by using the SPASS 19.0” for “by using SPASS 19.0”
An LC50 value is calculated by using the SPASS 19.0 data processing software.

[1] = tested on: strawberry red spider mites; assay: Field control of strawberry red spider mites; format: in vivo; details: for Control effect (%): corrected against fresh water control
Method: Test agents: 20% avermectin spirodiclofen suspension (Hebei Xingbai Agricultural Technology Co., Ltd., diluted 3000 times during use; and the biological mite pesticide BVP10 with the effective protein concentration of 389.5 μg/mL.
The test included three treatments, each repeated three times; blocks are randomly permuted; and the agents are applied to […] in each block with protective rows provided around the plants. […] Ten strawberry plants are taken from each block, with one leaf labeled for each plant. The number of red spider mites on both sides of each of the ten leaves are inspected. The red spider mites are directly observed with a hand-held magnifying lens, and the number of all living mites is taken down. The initial population number of the red spider mites is investigated before the application, and a total of three investigations are conducted on Day 1, Day 4, and Day 7 respectively after the application.
Calculation method of pesticidal effect: the control effect is calculated based on the initial population number of the red spider mites before the application and the number of living red spider mites on each day after the application, and the calculation formula is shown below: The data is analyzed for significance using Duncan's new multiple range method of DPS software.

[2] = Dose 19.475 μg/mL, female adult mites
[3] = Dose 38.95 μg/mL, female adult mites
[4] = Dose 77.9 μg/mL, female adult mites
[5] = Dose 389.5 μg/mL, female adult mites
[6] = Day 4 after application, field spray on strawberry leaves
[7] = Day 7 after application, field spray on strawberry leaves

B1: BVP10 protein: protein shown in SEQ ID NO:2 for controlling tetranychid mites, prokaryotically expressed in Escherichia coli BL21, about 10 kDa (protein)
chain: MLKSKIKKIAGAAVIAGALLVSVSPAKAETLPGLIWVMDKYTDAFKFDMFIKNGNEKWVYVYTRLSDGKVDVEEVKCETIYKDRCYVKQ
modifications: Sequence for protein prepared by prokaryotic expression, eukaryotic expression, or direct synthesis, based the gene sequence of SEQ ID NO 1
- Mortality (%) (Tetranychus urticae; [2]): 47.2%
- Probability Unit (P + 5) (Tetranychus urticae; Dose 19.475 μg/mL): 4.927
- Mortality (%) (Tetranychus urticae; [3]): 60.6%
- Probability Unit (P + 5) (Tetranychus urticae; Dose 38.95 μg/mL): 5.268
- Mortality (%) (Tetranychus urticae; [4]): 55.9%
- Probability Unit (P + 5) (Tetranychus urticae; Dose 77.9 μg/mL): 5.148
- Mortality (%) (Tetranychus urticae; [5]): 68.4%
- Probability Unit (P + 5) (Tetranychus urticae; Dose 389.5 μg/mL): 5.483
- Medial Lethal Concentration (LC50, μg/mL) (Tetranychus urticae; female adult mites, 24 hrs, regression Y = 4.5286 + 0.3682X (r = 0.8832)): 19.07 µg/mL
- Mortality (%) (Panonychus citri; [2]): 23.5%
- Probability Unit (P + 5) (Panonychus citri; Dose 19.475 μg/mL): 4.276
- Mortality (%) (Panonychus citri; [3]): 47.1%
- Probability Unit (P + 5) (Panonychus citri; Dose 38.95 μg/mL): 4.922
- Mortality (%) (Panonychus citri; [4]): 63.6%
- Probability Unit (P + 5) (Panonychus citri; Dose 77.9 μg/mL): 5.349
- Mortality (%) (Panonychus citri; [5]): 78.6%
- Probability Unit (P + 5) (Panonychus citri; Dose 389.5 μg/mL): 5.793
- Medial Lethal Concentration (LC50, μg/mL) (Panonychus citri; female adult mites, 24 hrs, regression Y = 3.0472 + 1.1072X (r = 0.9548)): 58.05 µg/mL
- Medial Lethal Concentration (LC50, μg/mL) (Tetranychus cinnabarinus; 24 hrs, regression Y = 2.3766 + 1.6846X (r = 0.9797)): 36.08 µg/mL
- Mortality (%) (Tetranychus cinnabarinus; Dose 19.475 μg/mL): 27.8%
- Probability Unit (P + 5) (Tetranychus cinnabarinus; Dose 19.475 μg/mL): 4.413
- Mortality (%) (Tetranychus cinnabarinus; Dose 38.95 μg/mL): 51.4%
- Probability Unit (P + 5) (Tetranychus cinnabarinus; Dose 38.95 μg/mL): 5.039
- Mortality (%) (Tetranychus cinnabarinus; Dose 77.9 μg/mL): 80.0%
- Probability Unit (P + 5) (Tetranychus cinnabarinus; Dose 77.9 μg/mL): 5.840
- Mortality (%) (Tetranychus cinnabarinus; Dose 389.5 μg/mL): 94.7%
- Probability Unit (P + 5) (Tetranychus cinnabarinus; Dose 389.5 μg/mL): 6.616
- Control effect (%) ([1]; Day 1 after application): 79.53%
- Decline rate (%) of living mites ([1]; Day 1 after application, field spray on strawberry leaves): 41.14%
- Residual no of mites ([1]; Day 1 after application, field spray on strawberry leaves, BVP10 389.5 μg/mL, reference diluted 3000 times): 206
- Control effect (%) ([1]; Day 4 after application): 83.71%
- Decline rate (%) of living mites [1, 6]: 33.14%
- Residual number of mites [1, 6]: 234
- Control effect (%) ([1]; Day 7 after application): 95.45%
- Decline rate (%) of living mites [1, 7]: 77.14%
- Residual number of mites [1, 7]: 80
